The values below come from PMC12326332, “Tuning ubiquitin transfer by RING E3 ubiquitin ligases through the linchpin residue” (Life Science Alliance, 2025).

The test concerns the target T1, mature human SMAC^56-C (human, UniProt Q9NR28 56-239).
T1 construct: SMAC (DIABLO), mature form starting from Ala56 to the C terminus; expressed as a SUMO fusion in pRSF-DUET1 so that the N terminus starts from Ala56; also called SMAC^56-C,Strep-II; mature SMAC; source: E. coli BL21 (DE3) Rosetta 2 pLysS, purified (His-TRAP, Superdex 75); not shown: SUMO, N-terminal, cleaved
T1 sequence (looked up): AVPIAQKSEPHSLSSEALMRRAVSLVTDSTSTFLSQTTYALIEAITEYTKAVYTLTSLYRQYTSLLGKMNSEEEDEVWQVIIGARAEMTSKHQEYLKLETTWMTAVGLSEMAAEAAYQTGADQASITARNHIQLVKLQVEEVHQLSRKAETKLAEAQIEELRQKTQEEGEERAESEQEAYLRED
Nature of the test: SEC; gel filtration elution profiles of XIAP-RNF38^WT, SMAC^56-C and the E3/SMAC mixture. The conditions noted are these: both partners purified. For orientation: Size exclusion chromatography separates by hydrodynamic size, large species first.

B1: XIAP^145-430-RNF38^389-C (other, UniProt P98170 145-430, looked up)
chain: QVVDISDTIYPRNPAMYSEEARLKSFQNWPDYAHLTPRELASAGLYYTGIGDQVQCFCCGGKLKNWEPCDRAWSEHRRHFPNCFFVLGRNLNIRSESDAVSSDRNFPNSTNLPRNPSMADYEARIFTFGTWIYSVNKEQLARAGFYALGEGDKVKCFHCGGGLTDWKPSEDPWEQHAKWYPGCKYLLEQKGQEYINNIHLTHSLEECLVRTTEKTPSLTRRIDDTIFQNPMVQEAIRMGFSFKDIKKIMEEKIQISGSNYKSLEVLVADLVNAQKDSMQDESSQTSTKADIEQLPSYRFNPNNHQSEQTLCVVCMCDFESRQLLRVLPCNHEFHAKCVDKWLKANRTCPICRADASEVHRDSE
notes: XIAP (BIRC4) residues 145-430 with the substrate-recruiting BIR2 and BIR3 domains; RNF38 RING domain, residue 389 to the C terminus; no linker between the two parts is told; also called XIAP-RNF38; XIAP-RNF38^WT; source: E. coli BL21 (DE3) Rosetta 2 pLysS, purified
For the molecule B1, the binding result is given as “binds”.
